T1: BCMA-Fc antigen (R&D Systems) (UniProt Q02223 1-54)
T1 construct: also called BCMA fc fusion protein (R&D Systems, cat #193-BC-050); recombinant BCMA-Fc; not shown: Fc portion of the bought fusion protein
T1 sequence (looked up): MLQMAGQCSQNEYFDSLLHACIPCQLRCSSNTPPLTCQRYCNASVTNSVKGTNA

T2: human BCMA (B-cell maturation antigen) on cells (human, UniProt Q02223 1-184)
T2 sequence (looked up): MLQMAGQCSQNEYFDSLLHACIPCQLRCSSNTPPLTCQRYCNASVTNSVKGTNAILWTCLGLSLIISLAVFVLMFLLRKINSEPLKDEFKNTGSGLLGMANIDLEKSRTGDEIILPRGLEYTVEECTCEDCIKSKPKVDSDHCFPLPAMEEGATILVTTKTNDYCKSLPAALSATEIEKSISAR

B1: BCMA-5 CAR (139104) (other)
chain: EVQLLETGGGLVQPGGSLRLSCAVSGFALSNHGMSWVRRAPGKGLEWVSGIVYSGSTYYAASVKGRFTISRDNSRNTLYLQMNSLRPEDTAIYYCSAHGGESDVWGQGTTVTVSSASGGGGSGGRASGGGGSEIVLTQSPATLSVSPGESATLSCRASQSVSSNLAWYQQKPGQAPRLLIYGASTRASGIPDRFSGSGSGTDFTLTISSLQAEDVAVYYCQQYGSSLTFGGGTKVEIKTTTPAPRPPTPAPTIASQPLSLRPEACRPAAGGAVHTRGLDFACDIYIWAPLAGTCGVLLLSLVITLYCKRGRKKLLYIFKQPFMRPVQTTQEEDGCSCRFPEEEEGGCELRVKFSRSADAPAYKQGQNQLYNELNLGRREEYDVLDKRRGRDPEMGGKPRRKNPQEGLYNELQKDKMAEAYSEIGMKGERRRGKGHDGLYQGLSTATKDTYDALHMQALPPR
notes: also called AR99-08FA
B2: BCMA-7 CAR (139106) (other)
chain: EVQLVETGGGLVQPGGSLRLSCAVSGFALSNHGMSWVRRAPGKGLEWVSGIVYSGSTYYAASVKGRFTISRDNSRNTLYLQMNSLRPEDTAIYYCSAHGGESDVWGQGTTVTVSSASGGGGSGGRASGGGGSEIVMTQSPATLSVSPGERATLSCRASQSVSSKLAWYQQKPGQAPRLLMYGASIRATGIPDRFSGSGSGTEFTLTISSLEPEDFAVYYCQQYGSSSWTFGQGTKVEIKTTTPAPRPPTPAPTIASQPLSLRPEACRPAAGGAVHTRGLDFACDIYIWAPLAGTCGVLLLSLVITLYCKRGRKKLLYIFKQPFMRPVQTTQEEDGCSCRFPEEEEGGCELRVKFSRSADAPAYKQGQNQLYNELNLGRREEYDVLDKRRGRDPEMGGKPRRKNPQEGLYNELQKDKMAEAYSEIGMKGERRRGKGHDGLYQGLSTATKDTYDALHMQALPPR
notes: also called QR91-12ZA
B3: BCMA-4 CAR (139103) (other)
chain: QVQLVESGGGLVQPGRSLRLSCAASGFTFSNYAMSWVRQAPGKGLGWVSGISRSGENTYYADSVKGRFTISRDNSKNTLYLQMNSLRDEDTAVYYCARSPAHYYGGMDVWGQGTTVTVSSASGGGGSGGRASGGGGSDIVLTQSPGTLSLSPGERATLSCRASQSISSSFLAWYQQKPGQAPRLLIYGASRRATGIPDRFSGSGSGTDFTLTISRLEPEDSAVYYCQQYHSSPSWTFGQGTKLEIKTTTPAPRPPTPAPTIASQPLSLRPEACRPAAGGAVHTRGLDFACDIYIWAPLAGTCGVLLLSLVITLYCKRGRKKLLYIFKQPFMRPVQTTQEEDGCSCRFPEEEEGGCELRVKFSRSADAPAYKQGQNQLYNELNLGRREEYDVLDKRRGRDPEMGGKPRRKNPQEGLYNELQKDKMAEAYSEIGMKGERRRGKGHDGLYQGLSTATKDTYDALHMQALPPR
notes: also called B4; JF32-78IB
B4: BCMA-11 CAR (139110) (other)
chain: QVQLVQSGGGLVKPGGSLRLSCAASGFTFSDYYMSWIRQAPGKGLEWVSYISSSGNTIYYADSVKGRFTISRDNAKNSLYLQMNSLRAEDTAVYYCARSTMVREDYWGQGTLVTVSSASGGGGSGGRASGGGGSDIVLTQSPLSLPVTLGQPASISCKSSESLVHNSGKTYLNWFHQRPGQSPRRLIYEVSNRDSGVPDRFTGSGSGTDFTLKISRVEAEDVGVYYCMQGTHWPGTFGQGTKLEIKTTTPAPRPPTPAPTIASQPLSLRPEACRPAAGGAVHTRGLDFACDIYIWAPLAGTCGVLLLSLVITLYCKRGRKKLLYIFKQPFMRPVQTTQEEDGCSCRFPEEEEGGCELRVKFSRSADAPAYKQGQNQLYNELNLGRREEYDVLDKRRGRDPEMGGKPRRKNPQEGLYNELQKDKMAEAYSEIGMKGERRRGKGHDGLYQGLSTATKDTYDALHMQALPPR
notes: also called UG65-93FB
B5: BCMA-3 CAR (139102) (other)
chain: QVQLVQSGAEVKKPGASVKVSCKASGYTFSNYGITWVRQAPGQGLEWMGWISAYNGNTNYAQKFQGRVTMTRNTSISTAYMELSSLRSEDTAVYYCARGPYYYYMDVWGKGTMVTVSSASGGGGSGGRASGGGGSEIVMTQSPLSLPVTPGEPASISCRSSQSLLYSNGYNYVDWYLQKPGQSPQLLIYLGSNRASGVPDRFSGSGSGTDFKLQISRVEAEDVGIYYCMQGRQFPYSFGQGTKVEIKTTTPAPRPPTPAPTIASQPLSLRPEACRPAAGGAVHTRGLDFACDIYIWAPLAGTCGVLLLSLVITLYCKRGRKKLLYIFKQPFMRPVQTTQEEDGCSCRFPEEEEGGCELRVKFSRSADAPAYKQGQNQLYNELNLGRREEYDVLDKRRGRDPEMGGKPRRKNPQEGLYNELQKDKMAEAYSEIGMKGERRRGKGHDGLYQGLSTATKDTYDALHMQALPPR
notes: Chimeric antigen receptor; also called KR98-03KA
B6: BCMA-2 CAR (139101) (other)
chain: QVQLQESGGGLVQPGGSLRLSCAASGFTFSSDAMTWVRQAPGKGLEWVSVISGSGGTTYYADSVKGRFTISRDNSKNTLYLQMNSLRAEDTAVYYCAKLDSSGYYYARGPRYWGQGTLVTVSSASGGGGSGGRASGGGGSDIQLTQSPSSLSASVGDRVTITCRASQSISSYLNWYQQKPGKAPKLLIYGASTLASGVPARFSGSGSGTHFTLTINSLQSEDSATYYCQQSYKRASFGQGTKVEIKTTTPAPRPPTPAPTIASQPLSLRPEACRPAAGGAVHTRGLDFACDIYIWAPLAGTCGVLLLSLVITLYCKRGRKKLLYIFKQPFMRPVQTTQEEDGCSCRFPEEEEGGCELRVKFSRSADAPAYKQGQNQLYNELNLGRREEYDVLDKRRGRDPEMGGKPRRKNPQEGLYNELQKDKMAEAYSEIGMKGERRRGKGHDGLYQGLSTATKDTYDALHMQALPPR
notes: also called UR96-08PA
B7: BCMA-4NP tool CAR (other)
chain: QVQLVQSGAEVKKPGSSVKVSCKASGGTFSNYWMHWVRQAPGQGLEWMGATYRGHSDTYYNQKFKGRVTITADKSTSTAYMELSSLRSEDTAVYYCARGAIYNGYDVLDNWGQGTLVTVSSGGGGSGGGGSGGGGSGGGGSDIQMTQSPSSLSASVGDRVTITCSASQDISNYLNWYQQKPGKAPKLLIYYTSNLHSGVPSRFSGSGSGTDFTLTISSLQPEDFATYYCQQYRKLPWTFGQGTKLEIKR

How the values were obtained:
[1] = molecular target: T1, BCMA-Fc antigen (R&D Systems); test: flow cytometry; BCMA-Fc staining of CAR-transduced JNL cells
Procedure: Jurkat-NFAT-luciferase (JNL) cells transduced with BCMA CAR constructs were evaluated for activation in response to BCMA-expressing target cell lines. Small-scale viral supernatant samples were generated in HEK293T cells for transduction of JNL cells. On Day 3 following transduction, BCMA CAR-transduced JNL cells were incubated with target cells at an effector-to-target (E:T) ratio of 6:1. Target cell lines were: K562-BCMA (engineered to stably express BCMA), K562 (parental line), and BCMA positive multiple myeloma cell lines, NCI-H929 and RPMI 8226. JNL activation was measured using Bright-Glo substrate (Promega) on Day 4. CAR expression on transduced JNL was assessed on Day 7 with BCMA-Fc antigen and Biotin-Protein L reagent (Table 21).

[2] = molecular target: T2, human BCMA (B-cell maturation antigen) …; test: cell-based or functional assay

| Binder | % CAR+ (BCMA-Fc detection) [1] [%] | JNL binding assay, ratio to K562; K562-BCMA [2] [ratio] | JNL binding assay, ratio to K562; NCI-H929 [2] [ratio] | JNL binding assay, ratio to K562; RPMI 8226 [2] [ratio] | Proliferation CD3, ratio to no target; K562-BCMA [2] [ratio] | Proliferation CD3, ratio to no target; KMS11-luc [2] [ratio] | Proliferation CD3, ratio to no target; NCI-H929 [2] [ratio] | Proliferation CD3, ratio to no target; RPMI 8226 [2] [ratio] | Proliferation CD4, ratio to no target; K562-BCMA [2] [ratio] | Proliferation CD4, ratio to no target; KMS11-luc [2] [ratio] | Proliferation CD4, ratio to no target; NCI-H929 [2] [ratio] | Proliferation CD4, ratio to no target; RPMI 8226 [2] [ratio] | Proliferation CD8, ratio to no target; K562-BCMA [2] [ratio] | Proliferation CD8, ratio to no target; KMS11-luc [2] [ratio] | Proliferation CD8, ratio to no target; NCI-H929 [2] [ratio] | Proliferation CD8, ratio to no target; RPMI 8226 [2] [ratio] |
| --- | --- | --- | --- | --- | --- | --- | --- | --- | --- | --- | --- | --- | --- | --- | --- | --- |
| B1 | 28.9 | 2.34 | 2.34 | 2.4 | 1.62 | 1.61 | 1.72 | 1.73 | 2.19 | 1.9 | 2.23 | 2.15 | 0.99 | 1.27 | 1.11 | 1.25 |
| B2 | 30.4 | 2.55 | 2.36 | 2.77 | 1.72 | 1.71 | 1.8 | 1.62 | 2.17 | 1.96 | 2.23 | 1.91 | 1.08 | 1.35 | 1.18 | 1.19 |
| B3 | 49.5 | 4.47 | 3.31 | 6.25 | 7.37 | 8.63 | 8.64 | 8.14 | 9.21 | 8.6 | 9.86 | 10.1 | 5.66 | 8.74 | 7.42 | 6.19 |
| B4 | 42.7 |  |  |  |  |  |  |  |  |  |  |  |  |  |  |  |
| B5 | 0 |  |  |  |  |  |  |  |  |  |  |  |  |  |  |  |
| B6 | 32 |  |  |  |  |  |  |  |  |  |  |  |  |  |  |  |
| B7 | 28.3 |  |  |  |  |  |  |  |  |  |  |  |  |  |  |  |

Reference: patent US20220064316A1 (published 2022)
